# Patent US20230340132A1, “ANTI-ADENOSINE RECEPTOR (A2aR) ANTIBODIES” (NA Biotech Corp, priority 2020, published 2023)
# Several values for one entry are separate records, joined by “and”; a condition that tells them apart may be missing. Equal values may be shown once. Entries after “also recorded” stand apart in the source; their conditions may differ.
# B1: anti-human A2aR monoclonal antibody 1B5-3D7 (antibody, V domains shown)
# VH: QVQLQQPGTELVKPGAPVKLSCKTSGFTFTRFWMNWVRQRPGRGLEWIGRIDPYDSETQYNHKFWDRATLTVDKSSSTVYIQLSSLTSEDSAVYYCGRSLYGKGDYWGQGTTLTVSS
# VL: DVLMTQSPLSLPVSLGDQASISCRSSQSIVHSNGNTYLEWYLQRPGQSPKLLIYKVSNRFSGVPDRFSGSGSGTYFTLRISRVEAEDLGIYYCFQGSHVPLTFGSGTTLELK
# notes: Tested as whole mouse IgG2a / kappa, purified from hybridoma supernatant or made recombinantly in Expi293 cells; also called 1B-3D7
# B2: 3F6-9G5: anti-human A2aR monoclonal antibody from mouse hybridoma clone; HCVR SEQ ID NO: 36, LCVR SEQ ID NO: 42 (antibody, V domains shown)
# VH: QVQLQQPGTELVKPGAPVRLSCKASGFAFTSYWMNWVRQRPGRGLEWIGRIDPSDSEAHYHHKFWGKATLTVDKSSSTVYIQLNGLTSEDSAVYYCLRSLYGKGDYWGHGTTLTVSS
# VL: DVLMTQTPLSLSVRLGDQASISCRSSQSLVHRNGNTYLEWYLQRPGQSPKLLIYKVSNRFSGVPDRFSGSGSGTDFTLKISRVEAEDLGVYYCYQGSHVPLTFGSGTKLEIK
# How the values were obtained:
# [1] = target: T1, human adenosine receptor A2A (Homo sapiens, UniProt P29274); test: flow cytometry-based cell-binding assay, HEK293T-A2A; conditions: for Geo Mean: HEK293T-A2A, duplicate; for binding to human A2aR (in words): summary of Table 12
# T1 construct: FLAG
# T1 sequence (P29274 whole entry): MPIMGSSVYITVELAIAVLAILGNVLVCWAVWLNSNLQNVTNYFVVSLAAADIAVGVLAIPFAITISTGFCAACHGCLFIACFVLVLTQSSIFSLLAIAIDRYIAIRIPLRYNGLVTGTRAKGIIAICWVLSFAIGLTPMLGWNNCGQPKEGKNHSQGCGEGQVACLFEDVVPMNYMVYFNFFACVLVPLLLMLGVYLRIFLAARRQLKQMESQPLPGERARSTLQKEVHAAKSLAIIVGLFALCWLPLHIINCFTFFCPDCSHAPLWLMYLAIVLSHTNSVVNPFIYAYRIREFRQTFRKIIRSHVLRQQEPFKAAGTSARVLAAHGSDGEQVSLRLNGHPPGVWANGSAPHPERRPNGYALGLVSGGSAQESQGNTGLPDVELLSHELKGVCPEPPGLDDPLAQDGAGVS
# Procedure: (§1) To test the specificity of the antigen binding molecules of the invention, e.g., anti-A2aR antibodies or antigen binding fragments thereof to human A2aR and not towards any of the other 3 adenosine receptor family members, a flow cytometry-based cell-binding assay was performed by Multispan Inc (Hayward, CA). HEK293T cells stably expressing various adenosine receptors, i.e., human A1R, A2bR, and A3R, and mouse A2R, generated by Multispan Inc and HEK293T parental cell lines were used in the assay. Briefly, adenosine receptor-overexpressing cell lines and HEK293T parental cell lines were incubated with 2, 10, and 50 nM of anti-human A2aR monoclonal antibodies (clones 1B5-3D7 and 3F6-9G5) and 10 and 50 nM of mouse IgG2a Isotype control at 4° C. in the dark for 60 minutes. Anti-FLAG antibody (Abcam, ab72469, 2 μg/mL) was used as positive control for cell lines over-expressing various adenosine receptors, respectively. After 3 washes with FACS buffer (PBS plus 0.1% BSA and 0.2% sodium azide), cells were stained with an anti-mouse-IgG-PE (Invitrogen, cat. P852) detection antibody for 45 minutes at 4° C. The cells were then washed 3 times with FACS buffer and analyzed on FACSort (Becton Dickinson). Data was analyzed using CellQuest Pro (Becton Dickinson).
# [2] = target: T2, mouse adenosine receptor A2A (Mus musculus, UniProt Q60613); test: flow cytometry-based cell-binding assay, HEK293T-mA2A; conditions: duplicate
# T2 construct: FLAG
# T2 sequence (Q60613 whole entry): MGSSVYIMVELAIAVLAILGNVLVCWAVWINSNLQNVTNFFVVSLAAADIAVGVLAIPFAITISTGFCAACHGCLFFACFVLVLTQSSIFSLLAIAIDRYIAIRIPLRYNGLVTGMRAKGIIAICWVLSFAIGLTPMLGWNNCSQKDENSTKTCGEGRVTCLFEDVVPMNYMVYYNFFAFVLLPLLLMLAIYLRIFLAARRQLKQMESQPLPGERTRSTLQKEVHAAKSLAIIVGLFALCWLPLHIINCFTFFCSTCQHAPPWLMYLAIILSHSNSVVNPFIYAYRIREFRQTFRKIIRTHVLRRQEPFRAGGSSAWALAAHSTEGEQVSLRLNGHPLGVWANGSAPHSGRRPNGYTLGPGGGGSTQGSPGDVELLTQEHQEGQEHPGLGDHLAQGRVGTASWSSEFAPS
# Procedure: as §1
# [3] = target: T3, human adenosine receptor A2B (Homo sapiens, UniProt P29275); test: flow cytometry-based cell-binding assay, HEK293T-A2B; conditions: duplicate
# T3 construct: FLAG
# T3 sequence (P29275 1-332): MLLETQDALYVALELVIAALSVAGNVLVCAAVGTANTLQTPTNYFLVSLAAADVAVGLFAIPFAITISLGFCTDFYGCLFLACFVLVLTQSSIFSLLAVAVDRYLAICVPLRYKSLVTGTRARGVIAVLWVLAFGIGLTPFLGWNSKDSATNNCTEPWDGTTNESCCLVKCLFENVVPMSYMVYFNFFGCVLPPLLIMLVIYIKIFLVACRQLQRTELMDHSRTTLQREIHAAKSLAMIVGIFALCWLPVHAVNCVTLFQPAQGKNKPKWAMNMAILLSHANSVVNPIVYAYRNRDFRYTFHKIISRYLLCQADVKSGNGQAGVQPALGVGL
# Procedure: as §1
# [4] = target: T4, human A2aR (Homo sapiens, UniProt P29274); test: FACS binding titration on hA2aR-Expi293 cells; conditions: 12-point 1:2 serial dilution starting from 7.5 ug/ml
# T4 construct: expressed in transfected cells; host or cells: Expi293
# T4 sequence (P29274 whole entry): as the sequence (P29274 whole entry) above
# Procedure: (§2) Human A2aR-expressing Expi293 cells or parental Expi293 cells were first added to 96-well plate (1×10^5 cells per well). Fifty microliters (50 μl) of 12-point 1:2 serial diluted samples starting from 7.5 ug/ml for each antibody was incubated with cells for 30 minutes on ice. After being washed with FACS buffer (2% Fetal bovine serum in DPBS), […] of Alex Fluor 633-conjugated anti mouse IgG (Life technology, Cat.A21050) or Alex Fluor 647-conjugated anti-human IgG was added and incubated for 30 minutes on ice. Cells were resuspended with 100 μl of FACS buffer after two washes. One hundred microliters 100 μl of 1:50 diluted 7-AAD for live/dead staining was added to the cell suspension, which was ready for FACS analysis (BD Accuri C6 plus or LSR II Flow Cytometer, HTS).
# [5] = target: T4, human A2aR; test: FACS screening of hybridoma clones on human A2aR-expressing Expi293 cells; format: binding; conditions: antibodies from hybridoma clones
# Procedure: (§3) Serum titration was performed using Fluorescence-Activated Cell Sorting (FACS) pursuant to standard procedures. Human A2aR-expressing Expi293 cells were first added to 96-well plate (1×10^5 cells per well), 50 μl of serial diluted serum (1:50, 1;150, 1:450, 1:[…], 1:12150) from each individual mouse was incubated with cells for 30 min. on ice. After washing with FACS buffer (2% Fetal bovine serum, 2 mM EDTA in PBS), Alex Fluor 647-conjugated anti mouse IgG was added and incubated for 20 min on ice. Cells were resuspending with 100 μl FACS buffer after two times wash and ready for FACS analysis (BD LSR II Flow Cytometer, HTS). […] (MFI: mean fluorescence intensity).
# (§4) Primary screening of the hybridoma supernatants in the 96-well plates was performed using the same FACS procedure as described for serum titration except following changes: 1) Human A2aR-expressing Expi293 cells (expressing GFP) were mixed at 1:1 ratio with parental Expi293 (no A2aR expression) and added to 96-well plates (2×10^5 cells per well), 2) 50 μl hybridoma supernatant transferred from each well of 96-well plates was incubated with cells for 30 min. on ice.
# (§5) Sub-cloning was performed by limiting dilution method. In short, the positive wells identified by FACS were seeded into 96-well plate at an average density of 1 cell/well. The […] was placed in incubator for 7-10 days to allow the growth of the cells. The growth of cells was monitored periodically. At about day 4, the wells on the plate were observed under phase contrast microscopy and the wells which appeared to have single colony growing (i.e., only one clumping of hybridomas) were recorded. The cells from the single colony wells were screed by FACS using the same procedure as described for primary screening of hybridoma when the confluence of the cell reached about 50%.
# [6] = tested on: parental Expi293 cells; test: FACS binding titration on parental Expi293 cells; conditions: 12-point 1:2 serial dilution starting from 7.5 ug/ml
# Procedure: as §2
# [7] = target: T5, human adenosine receptor A1 (Homo sapiens, UniProt P30542); test: flow cytometry-based cell-binding assay, HEK293T-A1; conditions: for Geo Mean: HEK293T-A1, duplicate; for binding to HEK293T-A1 relative to binding to human A2aR (in words): summary of Table 12
# T5 construct: FLAG
# T5 sequence (P30542 1-326): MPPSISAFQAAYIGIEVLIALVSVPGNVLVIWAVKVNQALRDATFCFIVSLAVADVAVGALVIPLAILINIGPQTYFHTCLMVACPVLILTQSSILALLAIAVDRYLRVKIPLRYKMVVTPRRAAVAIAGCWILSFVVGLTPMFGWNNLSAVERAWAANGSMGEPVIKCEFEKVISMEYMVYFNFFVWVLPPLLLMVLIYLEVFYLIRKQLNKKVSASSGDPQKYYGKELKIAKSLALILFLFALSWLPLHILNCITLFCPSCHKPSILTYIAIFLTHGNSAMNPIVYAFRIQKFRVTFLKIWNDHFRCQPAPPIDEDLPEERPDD
# Procedure: as §1
# [8] = tested on: parental Expi293 cells; test: FACS screening of hybridoma clones on parental Expi293 cells; format: binding; conditions: antibodies from hybridoma clones
# Procedure: as §3, §4, §5
# [9] = tested on: HEK293T cell without exogenous adenosine receptor; test: flow cytometry-based cell-binding assay, parental HEK293T; design: species or system human; conditions: duplicate
# Procedure: as §1
Molecule,Geo Mean ([1]; 2 nM),Geo Mean ([1]; 10 nM),Geo Mean ([1]; 50 nM),binding to human A2aR (in words) [1],Geo Mean ([2]; 2 nM),Geo Mean ([2]; 10 nM),Geo Mean ([2]; 50 nM),Geo Mean ([3]; 2 nM),Geo Mean ([3]; 50 nM),binding to hA2aR-Expi293 (FIG. 5) [4],binding to human A2aR-expressing cells (FIG. 2) [5],binding to parental Expi293 (FIG. 5) [6],Geo Mean ([7]; 2 nM),Geo Mean ([7]; 10 nM),Geo Mean ([7]; 50 nM),binding to HEK293T-A1 relative to binding to human A2aR (in words) [7],binding to parental Expi293 cells (FIG. 2) [8],Geo Mean ([9]; 2 nM),Geo Mean ([9]; 10 nM),Geo Mean ([9]; 50 nM)
B1,97.49 and 95.04,261.79 and 221.91,260.67 and 377.56,specifically bound to human A2aR,2.96 and 3.82,4.13 and 6.16,3.48 and 6.03,5.42 and 3.8,3.42 and 2.79,strong dose-dependent specific binding; also recorded: specifically binds,specific binding,not to parental Expi293,10.15 and 11.83,18.4 and 24.97,27.59 and 30.66,significantly weaker,not to parental Expi293 cells,3.69 and 4.11,5.42 and 4.07,5.24 and 4.96
B2,112.47 and 109.2,273.51 and 290.29,270 and 289.37,specifically bound to human A2aR,2.9 and 3.08,3.7 and 3.25,4.98 and 4.76,3.13 and 2.8,7.27 and 3.74,strong dose-dependent specific binding; also recorded: specifically binds,specific binding,not to parental Expi293,8.35 and 8.81,15.26 and 15.56,22.97 and 22.51,significantly weaker,not to parental Expi293 cells,3.98 and 4.33,4.01 and 4.27,4.19 and 6.16
